Assay [1] relates to Tie-2 phosphorylation (Ang-2-mediated) in HUVECs. As to the kind of experiment: Inhibition of Ang-2-mediated Tie-2 phosphorylation in FOXO1-adenovirus infected HUVECs. The conditions noted are these: antibody 0.5 μg/ml. The assay is classed as cell-based, human. As for the experimental part:
Further, the inventors have shown that infection of HUVECs with an adenovirus encoding FOXO1 results in expression and secretion of Ang-2, followed by activation of Tie-2 phosphorylation (Daly et al. 2006 PNAS 103:15491).
Anti-Ang-2 antibodies were tested for their ability to inhibit Tie-2 phosphorylation. Briefly, 7×10^5 HUVECs (Vec Technologies, Rensselaer, N.Y.) were plated in 6 cm cell culture dishes in 3.5 ml of MCDB131 Complete medium (Vec Technologies, Rensselaer, N.Y.). The following day, the cells were washed with Opti-MEM (Invitrogen Corp., Carlsbad, Calif.) and fed with 2 ml of Opti-MEM. […] Cells were then washed with MCDB131 and fed with 2 ml of MCDB131 containing anti-Ang-2 antibodies at a concentration of 0.5 μg/ml. At twenty hours post infection, cells were lysed and subjected to Tie-2 immunoprecipitation as described by Daly et al., Proc. Natl. Acad. Sci. USA 103:15491-15496 (2006). Immunoglobulin was collected on protein A/G beads (Santa Cruz Biotechnology, Santa Cruz, Calif.) for one hour. Beads were washed with cold lysis buffer and resuspended in SDS sample buffer for analysis by western blot with antibodies specific for phosphotyrosine (Millipore, Billerica, Mass.) or Tie-2. Signals were detected using HRP-conjugated secondary antibodies and ECL reagents (GE Healthcare, Piscataway, N.J.). X-Ray films were scanned and the phospho-Tie-2 and Tie-2 signals were quantified using ImageJ software. The phospho-Tie-2/Tie-2 ratios were used to determine the % inhibition for each anti-Ang-2 antibody (i.e. Percent inhibition=Reduction in phospho-Tie-2/Tie-2 as compared to control).

In assay [2] the test system is PC3 (Human Prostate Cancer Cell Line) tumors. Put plainly: PC3 mouse tumor model. Type of assay: in vivo, NCr nude mice. The conditions noted are these: PC3, 2 mg/kg twice per week. Here is the method: Briefly, 5×10^6 PC3 cells in 100 μl of growth factor-reduced Matrigel (BD Biosciences) were injected subcutaneously into the flanks of 6-8 week old male NCr nude mice (Taconic, Hudson, N.Y.). After tumor volumes reached an average of about 200 mm^3, mice were randomized into groups for treatment. […] Tumor volumes were measured twice per week over the course of the experiment and tumor weights were measured upon excision of tumors at the conclusion of the experiment. Averages (mean+/−standard deviation) of tumor weight and growth were calculated for each treatment group. Percent decrease of tumor weight and growth were calculated from comparison to Fc protein measurements.

Assay [3] deals with COLO 205 (Human Colorectal Adenocarcinoma Cell Line) tumors. Put plainly: COLO 205 mouse tumor model. The assay is classed as in vivo, mice. The conditions noted are these: COLO 205, NCr nude mice, 4 mg/kg intraperitoneal twice per week; for Avg Tumor Weight: approximately two weeks. Here is the method: Briefly, 2×10^6COLO 205 cells in 100 μl of serum-free medium were injected subcutaneously into the flank of 6-8 week old male NCr nude mice (Taconic, Hudson, N.Y.). After tumor volumes reached an average of about 150 mm^3, mice were randomized into groups for treatment with antibody or Fc protein. Mice in each treatment group were administered an anti-Ang-2 antibody or Fc protein at a concentration of 4 mg/kg via intraperitoneal injection twice per week for approximately two weeks. Tumor volumes were measured twice per week over the course of the experiment and tumor weights were measured upon excision of tumors at the conclusion of the experiment. Averages (mean+/−standard deviation) of tumor weight and growth were calculated for each treatment group. “Avg. Tumor Growth” represents the average growth from the time of treatment initiation (when tumors were approximately 150 mm^3). Percent decrease of tumor weight and growth are calculated from comparison to Fc protein measurements.
A similar experiment was carried out to assess the effect of H1H685P, in particular, on COLO 205 tumor growth. Briefly, 2×10^6 COLO 205 cells in 100 μl of serum-free medium were implanted subcutaneously into the right hind flank of 9-11 week-old male SCID CB17 mice. When the tumors reached ˜125 mm^3, mice were randomized into 5 groups (n=7-8 mice/group) and treated twice per week with Fc protein (15 mg/kg), H1H685P (5 or 25 mg/kg) or Control II (5 or 25 mg/kg) for a period of 19 days. Tumor volumes were measured twice per week over the course of the experiment and tumor weights were measured upon excision of tumors at the end of the experiment. Averages of tumor weight and growth from the beginning of treatment were calculated for each group. Percent decrease of tumor weight and growth are calculated from comparison to the Fc control group.
To determine the effect of combining an anti-Ang-2 antibody with a VEGF inhibitor on the growth of COLO 205 xenografts, 2×10^6 cells were implanted subcutaneously into the right hind flank of 6-8 week-old female SCID mice. When the tumors reached an average volume of ˜350 mm^3, mice were randomized into 4 groups (n=6 mice/group) and treated with: human Fc protein (7.5 mg/kg), H1H685P (5 mg/kg), VEGF Trap (see U.S. Pat. No. 7,087,411) (2.5 mg/kg) or the combination of H1H685P+VEGF Trap. Mice were given a total of 3 doses over 10 days of treatment. Tumor volumes were measured twice per week over the course of the experiment. Averages of tumor growth from the start of treatment (mean+/−standard deviation) were calculated for each treatment group. Percent decrease of tumor growth was calculated from comparison to the Fc control group.
To test the effect of H1H685P in combination with a chemotherapeutic agent on tumor growth, 2.5×10^6 COLO 205 tumor cells were implanted subcutaneously into the right hind flank of 8-9 week-old male SCID mice. When the tumors reached an average volume of ˜150 mm^3 (day 17 after implantation), mice were randomized into 4 groups (n=5 mice/group) and treated as follows: the first group was treated sc with 15 mg/kg hFc and intraperitoneally (ip) with 5-FU vehicle; the second group was treated sc with 15 mg/kg of H1H685P; the third group was treated ip with 75 mg/kg of 5-FU; the fourth group was treated with the combination of 15 mg/kg H1H685P sc plus 75 mg/kg 5-FU ip. Mice received a total of three treatments, administered every 3-4 days. Tumor volumes were measured twice per week over the course of the experiment. Average (mean+/−standard deviation) tumor growth from the beginning of treatment until day 38 was calculated for each group. Percent decrease of tumor growth was calculated from comparison to the control group.

B1: H1H693P: anti-Ang-2 antibody, HCVR/LCVR SEQ ID NOs 90/92 (antibody, V domains shown)
VH: EVQLVESGGGLVQPGESLRLSCAASGFTFSSYAMSWVRQGPGKGLEWVSSISGSGGTTYYADSVEGRFTISRDNSKNTLYLHMNSLRAEDTAVYYCAKDFLDYSTYLAFDLWGQGTMVTVSS
VL: DIQMTQSPSSVSASVGDRVTITCRASQGISSWLAWYQQKPGKAPKLLIYAASSLQSGVPSRFSGSGSGTDFTLTISSLQPEDFATYYCQQANSFPRTFGQGTKVEIK
For B1, in assay [1], the “Inhibition of Tie-2 phosphorylation” value is “+++ (75-100%)” and the “Inhibition of Tie-2 phosphorylation (in words)” value (from here on “Inhibition … (in words)”) is on record as “Especially robust inhibition”.

B2: H2M743N: anti-Ang-2 antibody, HCVR/LCVR SEQ ID NOs 410/418 (antibody, V domains shown)
VH: EVQLLESGGGLVQPGGSLRLSCAASGFTFRKYAMSWVRQAPGKGLEWVSVISVSGGNTYYADSVKGRFTISRDNSKNTLYLQLNSLRAEDTAVYYCAKDLTDIVLMVYVDYWGQGTLVTVSS
VL: DIQMTQSPSSVSASVGDRVTITCRASQDIDRWLAWYQQKPGKAPKLLIYAASSLQSGVPSRFSGSGSGTDFTLTISTLQPEDFATYYCQQANSLPFTFGGGTKVEIK
Turning to B2, in assay [2], the “% Decrease in Tumor Growth” value is listed as 50%, the “% Decrease in Tumor Weight” value came out at 41%, the “Avg Tumor Growth” value is listed as 179 ± 169 mm^3 and the “Avg Tumor Weight” value amounted to 0.372 ± 0.122 g. For the same molecule, in assay [1], the “Inhibition of Tie-2 phosphorylation” value is “+++ (75-100%)”.

B3: H1M724N: anti-Ang-2 antibody, HCVR/LCVR SEQ ID NOs 266/274 (antibody, V domains shown)
VH: QVQLVESGGGVVQPGRSLRLSCAASGFTLSNYGMHWVRQAPGKGLEWVAVIWHDGSNTYYADSVKGRFTISRDNSKNTLYLQMNSLRAEDTAVYYCTREGLDFWSGYYPNWFDPWGQGTLVTVSS
VL: DIQMTQSPSSLSASVGDRVTITCRASQGIRNDLGWYQQKPGKAPKRLIYAASNLQGGVPSRFSGSGSGTEFTLTISSLQPEDFAAYYCLQHNIYPLTFGGGTKVEIK
In the case of B3, in assay [3], the “% Decrease in Tumor Growth” value turned out to be 54%, the “% Decrease in Tumor Weight” value worked out at 37%, the “Avg Tumor Growth” value is 336 ± 125 mm^3 and the “Avg Tumor Weight” value worked out at 0.531 ± 0.103 g. Further, in assay [1], the “Inhibition of Tie-2 phosphorylation” value was “+++ (75-100%)” and the “Inhibition … (in words)” value was “Especially robust inhibition”.

B4: H1M732N: anti-Ang-2 antibody, HCVR/LCVR SEQ ID NOs 242/250 (antibody, V domains shown)
VH: EVQLVESGGGLVRPGGSLRLSCAASGFTFTNAWMSWVRQAPGKGLEWIGQIKSKTDGGTIDYAAPVKGRFTVSRDDSENTLFLQMNSLKTEDTAVYYCAGNWNYVDFDYWGQGTLVTVSS
VL: DIQMTQSPSSLSASVGDRVTITCRASQDIRNDLGWYQQKPGKAPKRLIYAASSLQGGVPSRFSGSGSGTEFTLTISSLQPEDFATYYCLQHNSYPFTFGPGTKVDIK
With B4, the “Inhibition of Tie-2 phosphorylation” value in assay [1] is listed as “++ (50-75%)”.

B5: H1H704P: anti-Ang-2 antibody, HCVR/LCVR SEQ ID NOs 186/188 (antibody, V domains shown)
VH: QVQLVESGGDVVQPGRSLRLSCAASGFTFSSYGMHWVRQAPGKGLEWVAIIWYDGSNKYYADSVKGRFTISRDNSKNTLYLQMNSLRVEDTAVYSCARDFSISSRHFDYWGQGTLVTVSS
VL: DIQMTQSPSSLSASVGDRVTITCRASQAINNYLAWFQQKPGKAPKSLIYATSNLQSGVPSQFSGSGSGTDYTLTISSLQPEDFATYYCQQYYIYPITFGQGTRLEIK
In the case of B5, in assay [1], the “Inhibition of Tie-2 phosphorylation” value was “+++ (75-100%)” and the “Inhibition … (in words)” value is on record as “Especially robust inhibition”.

B6: H2M750N: anti-Ang-2 antibody, HCVR/LCVR SEQ ID NOs 458/466 (antibody, V domains shown)
VH: QVKLVESGGGVVQPGRSLRVSCAASGFTFSSYGMHWVRQAPGKGLEWLAIIWYDGDNKYYSDSVKGRFTISRDNSKNTLYLQMNSLRAEDTAEYYCVRDASIASRFLDYWGQGTLVTVSS
VL: DIQMTQSPSSLSASIGDRVTITCRATQDINNYLAWFQQKPGKAPKSLIYATSNLQSGVPSKFSGSGSGTDYTLTISSLQPEDFSTYYCQQYHSYPLTFGGGTKVEIK
For the molecule B6, in assay [2], the “% Decrease in Tumor Growth” value was found to be 52%, the “% Decrease in Tumor Weight” value is recorded as 37%, the “Avg Tumor Growth” value turned out to be 227 ± 195 mm^3 and the “Avg Tumor Weight” value worked out at 0.348 ± 0.128 g. In assay [1], the “Inhibition of Tie-2 phosphorylation” value is “+++ (75-100%)” and the “Inhibition … (in words)” value is “Especially robust inhibition”.

B7: H2M742N: anti-Ang-2 antibody, HCVR/LCVR SEQ ID NOs 386/394 (antibody, V domains shown)
VH: DVQLLESGGDLVQPGGSLRLSCEASGFTFRNYVMIWVRQAPGKGLEWVSGISNSGGTTHYTDSVKGRFTISRDNSKNTLYLQINSLRAEDTAVYYCAKGYLDTSLIEGNWFDPWGQGTLVTVSS
VL: NIVMTQSPLSLPVTPGEPASISCRSSQSLLHSNGFNYLNWFLQKPGQSPQLLIYLGSNRASGVPDKFSGSGSGTDFTLNINRVEAEDVGIYFCMQTLQTPLTFGGGTKVEIK
Consider B7, for which, in assay [3], the “% Decrease in Tumor Growth” value was 42%, the “% Decrease in Tumor Weight” value is 32%, the “Avg Tumor Growth” value was 427 ± 92 mm^3 and the “Avg Tumor Weight” value came out at 0.576 ± 0.057 g. In assay [2], the “% Decrease in Tumor Weight” value is 35%, the “Avg Tumor Growth” value was 220 ± 102 mm^3 and the “Avg Tumor Weight” value was 0.407 ± 0.076 g. Further, the “Inhibition of Tie-2 phosphorylation” value in assay [1] is recorded as “++ (50-75%)”.
